Data: patent US20100247430A1 (published 2010)

Biological target: Dlg1 (endogenous, mouse T cells) (mouse, UniProt Q811D0 1-905, limits assumed)
Experiment: co-immunoprecipitation from activated mouse CD4+ T cell extracts, anti-Dlg1 IP, anti-Crtam immunoblot
Method: (A) Naïve CD4⁺ T cells from Crtam^{-/+} and Crtam^{-/-} mice were activated for the indicated times and cell extracts were immunoprecipitated with Abs against Scrib (upper panels) or Dlg1 (lower panels). Immune complexes were then analyzed by immunoblotting against Crtam. Data shown are representative of five independent experiments.
To assess the interaction of Crtam and PDZ-containing proteins, microbead purified CD4⁺ T cells were stimulated with plate-bound […] (10 μg/ml) and anti-CD28 (2 μg/ml) mAbs, whole cell extracts were immunoprecipitated using anti-Scrib antibody (K-21, Santa Cruz) and immune complexes analyzed by immunoblotting with anti-Crtam mAb (6E2, Genentech) or anti-Scrib Ab (H-300, Santa Cruz). The control experiment was performed using anti-Dlg1 Ab (H-60, Santa Cruz) for immunoprecipitation. […] Crtam-Flag was immunoprecipitated using anti-Flag M2-agarose beads (Sigma) and immune complexes were analyzed by immunoblotting with anti-GST (GE Healthcare Bio-Sciences) or anti-Crtam (6E2) mAbs.
To define the mechanism(s) by which Crtam regulates T cell morphology, we analyzed the ability of Scrib and Dlg1 to co-immunoprecipitate with Crtam in resting and activated T cells (FIG. 5A). Crtam was detected in Scrib, but not Dlg1, immunoprecipitates 14 h following TCR activation. […]

Sequence of Dlg1 (endogenous, mouse T cells) (Q811D0 whole entry): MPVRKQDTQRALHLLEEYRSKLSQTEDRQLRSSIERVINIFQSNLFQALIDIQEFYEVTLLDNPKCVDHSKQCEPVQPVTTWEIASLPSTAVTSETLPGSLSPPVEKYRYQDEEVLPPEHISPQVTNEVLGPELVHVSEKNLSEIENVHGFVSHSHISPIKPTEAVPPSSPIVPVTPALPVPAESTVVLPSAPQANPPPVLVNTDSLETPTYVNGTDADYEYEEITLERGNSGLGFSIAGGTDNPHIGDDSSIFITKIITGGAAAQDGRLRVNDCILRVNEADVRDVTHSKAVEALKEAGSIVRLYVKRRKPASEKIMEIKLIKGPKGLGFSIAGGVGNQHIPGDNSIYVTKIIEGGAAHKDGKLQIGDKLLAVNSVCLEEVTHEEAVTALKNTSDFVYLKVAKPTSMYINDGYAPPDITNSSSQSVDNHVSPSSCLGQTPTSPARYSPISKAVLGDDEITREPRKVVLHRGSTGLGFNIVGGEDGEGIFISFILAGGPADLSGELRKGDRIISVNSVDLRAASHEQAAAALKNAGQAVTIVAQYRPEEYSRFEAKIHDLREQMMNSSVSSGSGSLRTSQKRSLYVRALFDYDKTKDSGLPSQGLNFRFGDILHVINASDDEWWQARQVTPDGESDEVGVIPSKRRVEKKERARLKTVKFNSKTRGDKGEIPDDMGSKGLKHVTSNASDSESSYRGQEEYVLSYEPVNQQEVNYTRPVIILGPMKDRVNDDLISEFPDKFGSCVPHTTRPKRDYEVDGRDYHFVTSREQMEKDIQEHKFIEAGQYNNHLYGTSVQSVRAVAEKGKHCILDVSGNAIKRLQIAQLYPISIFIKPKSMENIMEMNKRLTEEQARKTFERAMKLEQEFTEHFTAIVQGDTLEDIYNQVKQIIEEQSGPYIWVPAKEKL

binding result: no binding
B1: mouse Crtam (endogenous, on activated mouse T cells) (receptor)
chain: AFLKMETVTVEEGQTLTLTCVTSQTKNVSLQWLAPSGFTIFLNQHPALKSSKYQLLHHSATQLSISVSNVTLREEGVYTCLHYGSSVKTKQVRVTVLVTPFQPTVEALVLRRQNGEKSVVLKCSTERSKPPPQITWLLGEGLEIYGELHHEFEADGKICNTSSTLIARAYGKNSTVHCIIQHEGLHGRKLVAPFQFEDLVADQETTSDAPEQSSLSSQALQQPTSTVSMMENSSIPETDKEEKEHATQDPGLSTASAQHTGLARRKSGILLLTLVSFLIFILFIIVQLFIMKLRKAHVVWKKESEISEQALESYRSRSNNEETSSQENSSQAPQSKRCMNYITQLYSGAKTKKSAQHWKLGGKHSRVPESIV
notes: Endogenous protein of mouse CD4+ or CD8+ T cells; In the co-immunoprecipitations it came from whole cell extracts; In flow cytometry and the Cadm1(ECD)-Fc assay it was on the cell surface; also called class-I MHC restricted T-cell associated molecule
